Target: T1, SARS-CoV S1 subunit (SARS-CoV WH20 (AAX16192.1), UniProt Q5DIC5)
T1 construct: source: bought: Sino Biological
Assay: western blotting
Settings: one partner purified

B1: mAb 12C10 (antibody, V domains shown)
VH: EVKLQESGGGLVKPGGSLKLSCAASGFTFSNYSMSWVRQTPEKRLEWVATISNGGGYIYYLDSVKGRFTISRDNAKNTLYLQMSSLRSEDTAMYYCGRPRPEKEFISTSTAMDHWGQGTTVT
VL: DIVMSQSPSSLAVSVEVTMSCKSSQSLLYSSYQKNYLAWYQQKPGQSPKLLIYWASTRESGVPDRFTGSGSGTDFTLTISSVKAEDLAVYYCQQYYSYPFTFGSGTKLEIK
notes: also called anti-R405; source: mouse hybridoma; supernatants or ascites fluid
- binding result: binds

Source: article PMC8490722 (Frontiers in Immunology, 2021)
